Test results from patent US20090062228, “piRNA and uses related thereto” (published 2009).

Experiments:
[1] = target: T1, Argonaute 3 (Ago3) (Drosophila melanogaster, UniProt Q7PLK0 SEQ:1-867); assay: RNA cloned and sequenced from Ago3 immunoprecipitate of ovary extract; A at position 10; settings: tags: none; endogenous RNP immunopurified from ovary lysate
T1 sequence: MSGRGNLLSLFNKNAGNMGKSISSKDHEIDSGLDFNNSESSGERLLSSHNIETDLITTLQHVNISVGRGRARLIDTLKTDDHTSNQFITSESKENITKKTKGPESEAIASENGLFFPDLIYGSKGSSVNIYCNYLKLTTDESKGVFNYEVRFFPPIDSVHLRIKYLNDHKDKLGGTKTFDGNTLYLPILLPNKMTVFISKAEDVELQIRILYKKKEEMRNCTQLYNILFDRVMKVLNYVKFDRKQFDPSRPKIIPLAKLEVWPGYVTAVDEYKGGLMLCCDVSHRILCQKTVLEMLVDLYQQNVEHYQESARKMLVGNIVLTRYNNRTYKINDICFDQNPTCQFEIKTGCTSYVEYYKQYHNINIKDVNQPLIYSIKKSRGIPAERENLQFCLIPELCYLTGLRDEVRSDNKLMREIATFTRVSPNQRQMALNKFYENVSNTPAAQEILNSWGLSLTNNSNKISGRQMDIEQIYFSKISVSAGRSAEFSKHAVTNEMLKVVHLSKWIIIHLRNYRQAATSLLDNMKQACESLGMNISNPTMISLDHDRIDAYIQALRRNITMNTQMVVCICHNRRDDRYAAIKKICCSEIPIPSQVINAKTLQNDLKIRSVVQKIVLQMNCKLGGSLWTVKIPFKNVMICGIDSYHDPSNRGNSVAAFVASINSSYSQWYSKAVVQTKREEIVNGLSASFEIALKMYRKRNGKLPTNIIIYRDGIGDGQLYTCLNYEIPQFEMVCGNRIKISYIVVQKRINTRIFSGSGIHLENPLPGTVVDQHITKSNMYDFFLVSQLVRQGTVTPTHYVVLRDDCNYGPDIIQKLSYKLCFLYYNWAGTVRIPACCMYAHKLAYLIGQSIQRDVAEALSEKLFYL
Procedure: (§1) Ovaries were dissected into ice cold PBS, flash frozen in liquid nitrogen and stored at −80 degrees. Ovary extract was prepared in Lysis buffer (20 mM HEPES-NaOH pH 7.0, 150 mM NaCl, 2.5 mM MgCl2, 250 mM Sucrose, 0.05% NP40, 0.5% Triton X-100. 1× Roche-Complete EDTA free) using a glass dounce homogenizer. Extracts were cleared by several spins at 14000 rpm. Extracts (10 microgram/microliter) were incubated with primary antibodies (1:50) for 4 h at 4 degrees per ml of extract. Fifteen microliters of Protein-G Sepharose (Roche) were added and mixtures were further incubated for 1 h at 4 degrees. Beads were washed 4 times in lysis buffer. RNA extraction from beads and 5′ labeling of RNAs was done as described in (Aravin et al., 2006)

[2] = target: T2, Aubergine (Aub) (Drosophila melanogaster, UniProt O76922 SEQ:1-866); assay: RNA cloned and sequenced from Aub immunoprecipitate of ovary extract; 5'U; settings: tags: none; endogenous RNP immunopurified from ovary lysate
T2 sequence: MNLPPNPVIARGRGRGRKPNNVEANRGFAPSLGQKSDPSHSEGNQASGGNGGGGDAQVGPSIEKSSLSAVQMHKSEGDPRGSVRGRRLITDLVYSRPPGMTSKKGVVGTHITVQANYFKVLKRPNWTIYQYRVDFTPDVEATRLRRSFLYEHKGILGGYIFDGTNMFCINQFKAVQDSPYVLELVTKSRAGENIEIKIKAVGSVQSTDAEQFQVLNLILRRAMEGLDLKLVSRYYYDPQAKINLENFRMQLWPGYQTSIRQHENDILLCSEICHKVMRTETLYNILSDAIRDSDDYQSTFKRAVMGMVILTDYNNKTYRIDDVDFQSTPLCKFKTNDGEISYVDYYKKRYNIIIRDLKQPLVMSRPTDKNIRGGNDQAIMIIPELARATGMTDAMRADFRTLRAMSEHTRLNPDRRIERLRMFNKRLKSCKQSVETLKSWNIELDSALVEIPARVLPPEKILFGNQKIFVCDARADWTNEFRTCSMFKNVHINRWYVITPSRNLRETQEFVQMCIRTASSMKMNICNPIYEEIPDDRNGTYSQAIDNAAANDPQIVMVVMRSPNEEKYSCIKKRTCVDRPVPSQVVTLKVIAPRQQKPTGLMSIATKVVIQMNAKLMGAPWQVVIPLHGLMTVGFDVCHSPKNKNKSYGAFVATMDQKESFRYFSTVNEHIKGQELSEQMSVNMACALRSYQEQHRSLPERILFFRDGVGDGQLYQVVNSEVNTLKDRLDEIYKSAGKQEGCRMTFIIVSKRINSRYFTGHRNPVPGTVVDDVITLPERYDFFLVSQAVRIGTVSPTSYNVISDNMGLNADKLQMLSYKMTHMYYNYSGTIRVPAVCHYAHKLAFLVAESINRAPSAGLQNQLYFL
Procedure: as §1

B1: roo sense piRNA (ssRNA)
RNA: CCUCUGCGUAGGCCAUUUACUUUAAG
Does B1 bind [1]?
Result: binds

B2: roo antisense piRNA (ssRNA)
RNA: UACGCAGAGGCCUAAGUAAAUAGUC
Does B2 bind [2]?
Result: binds
